The values that follow come from article PMC6317713.

Some results are limits rather than exact numbers.

Experiment in all cases: two-hybrid
Assay [1] concerns the target DIG10.3 monomer (DIG0), computationally designed digoxigenin-binding protein.
For assay [2], the target named is PRO0 (DIG10.3 Y34F, Y99F, Y101F), progesterone ligand-binding domain.
In assay [3] the target is DIG1b (DIG10.3 E83R), charge swap design.
Assay [4] has as its target DIG2b (DIG10.3 I102A), knob-in-hole design.

In the case of DIG1 (DIG10.3 E83V) (designed binder), the fold activation of the luciferase reporter with digoxigenin in assay [1] amounted to 400 fold. In assay [2], this substance displayed a fold luciferase activity with both ligands over either ligand alone of 20 fold.

Consider “DIG1a (DIG10.3 R116E), charge swap design (designed binder)”, for which the fold increase in reporter activation with digoxigenin in assay [3] is above 500 fold.

“DIG2a (DIG10.3 I102M, V104F), knob-in-hole design (designed binder)” displayed a fold increase in reporter activation with digoxigenin in assay [4] above 500 fold.

In the case of “DIG10.3 monomer (DIG0), computationally designed digoxigenin-binding protein (designed binder)”, in assay [1], the fold increase in luciferase activity with 50 uM digoxigenin came to 20 fold.

On to “PRO0 (DIG10.3 Y34F, Y99F, Y101F), progesterone ligand-binding domain (designed binder)”, for which the fold increase in reporter activity with 1 uM progesterone in assay [2] is 200 fold.
